For test [1], the target named is T1, maltose binding protein fused-large extracellular loop of CD81 (UniProt P60033 113-201).
T1 construct: also called CD81-LEL; MBP-fused CD81-LEL
T1 sequence: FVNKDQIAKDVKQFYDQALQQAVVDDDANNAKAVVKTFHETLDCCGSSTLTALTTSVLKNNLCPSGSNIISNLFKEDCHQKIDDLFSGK
The test can be described thus: capture ELISA.

In test [2] the target is T1, maltose binding protein fused-large …. The test can be described thus: capture ELISA, coated CD81-LEL captures Flag-tagged E2 mutant. In general terms: ELISA stands for enzyme-linked immunosorbent assay.
The target in test [3] is T2, E1E2 of HCV isolate H77 (hepatitis C virus genotype 1a, isolate …, UniProt P27958 192-383; P27958 384-746). The test can be described thus: cell-based or functional assay.
Test [4] addresses T2, E1E2 of HCV isolate H77. The test can be described thus: ELISA on lectin-captured E1E2; apparent affinity = half-maximal binding.
Test [5] addresses vaccinia-expressed E1E2 (isolate HCV-1) (hepatitis C virus genotype 1a, isolate …, UniProt P26664 192-383; P26664 384-746). The test is described as above.

Bounds are passed on as bounds.

B1: E2ΔTM (other)
chain: ETHVTGGNAGRTTAGLVGLLTPGAKQNIQLINTNGSWHINSTALNCNESLNTGWLAGLFYQHKFNSSGCPERLASCRRLTDFAQGWGPISYANGSGLDERPYCWHYPPRPCGIVPAKSVCGPVYCFTPSPVVVGTTDRSGAPTYSWGANDTDVFVLNNTRPPLGNWFGCTWMNSTGFTKVCGAPPCVIGGVGNNTLLCPTDCFRKHPEATYSRCGSGPWITPRCMVDYPYRLWHYPCTINYTIFKVRMYVGGVEHRLEAACNWTRGERCDLEDRDRSELSPLLLSTTQWQVLPCSFTTLPALSTGLIHLHQNIVDVQYLYGVGSSIASWAIKWELEDYKDDDDK
As for B1, in test [1], the binding result was “binds”.

B2: E2412-661 (other)
chain: QLINTNGSWHINSTALNCNESLNTGWLAGLFYQHKFNSSGCPERLASCRRLTDFAQGWGPISYANGSGLDERPYCWHYPPRPCGIVPAKSVCGPVYCFTPSPVVVGTTDRSGAPTYSWGANDTDVFVLNNTRPPLGNWFGCTWMNSTGFTKVCGAPPCVIGGVGNNTLLCPTDCFRKHPEATYSRCGSGPWITPRCMVDYPYRLWHYPCTINYTIFKVRMYVGGVEHRLEAACNWTRGERCDLEDRDRSELEDYKDDDDK
Consider B2, for which, in test [1], the binding result was “binds”.

B3: E2412-645 (other)
chain: QLINTNGSWHINSTALNCNESLNTGWLAGLFYQHKFNSSGCPERLASCRRLTDFAQGWGPISYANGSGLDERPYCWHYPPRPCGIVPAKSVCGPVYCFTPSPVVVGTTDRSGAPTYSWGANDTDVFVLNNTRPPLGNWFGCTWMNSTGFTKVCGAPPCVIGGVGNNTLLCPTDCFRKHPEATYSRCGSGPWITPRCMVDYPYRLWHYPCTINYTIFKVRMYVGGVEHRLEAACNLEDYKDDDDK
On to B3, for which the binding result in test [1] was “binds”.

B4: E2ΔN5 (other)
chain: QLINTNGSWHINSTALNCNESLNTGWLAGLFYQHKFNSSGCPERLASCGSSGCWHYPPRPCGIVPAKSVCGPVYCFTPSPVVVGTTDRSGAPTYSWGANDTDVFVLNNTRPPLGNWFGCTWMNSTGFTKVCGAPPCVIGGVGNNTLLCPTDCFRKHPEATYSRCGSGPWITPRCMVDYPYRLWHYPCTINYTIFKVRMYVGGVEHRLEAACNLEDYKDDDDK
As to B4, the binding result in test [2] is given as “binds”.

B5: MAb AR2A (antibody, V domains shown)
VH: LEQSGAEMKKPGASLKVSCKTSGYTFDDYGVTWVRQAPGQGLEWMGWISAYSGNTFYARKFQGRVTMTTDPSTRTAYMELRSLRSDDTAVYFCARDRGLAINGVVFPYFGLDVWGQGTTVTVSS
VL: ELTQSPVSLPVTPGEPASISCRSSQSLLHSNGNHYLDWYLQKPGQSPQLLMYLGSNRASGVPDRFSGSGSGTDFTLKISRVEAEDVGVYYCMQGLQTPWTFGQGTKVEIKR
notes: also called IgG1 AR2A
Regarding B5, the “Neutralizing activity (IC50), HCVpp” value with E1E2 of HCV isolate H77 [3] was 1 µg/mL. Besides, the figures for the EC50 (with E1E2 of HCV isolate H77 [4]; in test [5]) were 1.6 nM and 3.1 nM, respectively.

B6: MAb AR3D (antibody, V domains shown)
VH: LEQSGAEVKKPGSSVKVSCKASGDTFRSYVITWARQAPGQGLEWMGAIIPFFGTTNLAQKFQGRVTITADESTKTVYMDLSSLRSDDTAVYYCAKAGDLSVGGVLAGGVPHLRHFDPWGQGTLVTVSS
VL: ELTQSPGTLSLSPGERATLSCRAGQTVASNSLAWYQHKPGQAPRLLIYGASIRASGIPDRFSGSGSGTDFTLTISRLEPEDFAVYYCQQYGLSPSTFGQGTRLEIKR
notes: also called IgG1 AR3D
Consider B6, for which the EC50 in test [5] was 2.4 nM.

B7: MAb AR1B (antibody, V domains shown)
VH: LESGGGLVQPGGSLRLSCEASGYYFSSFAMSWVRQTPGKGLEWVSSIAGGTLGRTSYRDSVKGRFTISRDNSKNTVFLHMNNLRPEDTAVYYCAKDPLLFAGGPNWFDHWGQGTLVTVSS
VL: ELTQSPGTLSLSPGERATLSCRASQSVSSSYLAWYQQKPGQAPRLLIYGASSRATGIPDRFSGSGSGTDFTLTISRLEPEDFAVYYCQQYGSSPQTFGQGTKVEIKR
notes: also called IgG1 AR1B
For B7, the “Neutralizing activity (IC50), HCVpp” value with E1E2 of HCV isolate H77 [3] is more than 50 µg/mL. For the same molecule, the EC50 with E1E2 of HCV isolate H77 [4] is 0.6 nM; in test [5], 0.4 nM.

B8: MAb AR3B (antibody, V domains shown)
VH: LEQSGPEVKKPGSSVKVSCKDSGDTFNEPVTWVRQAPGQGLEWIGGIIPAFGVTKYAQKFQGRVIISADASTATAYLELSSLRSEDTAVYYCAKVGLRGIVMVGGLAMNWLDPWGQGTQVTVSS
VL: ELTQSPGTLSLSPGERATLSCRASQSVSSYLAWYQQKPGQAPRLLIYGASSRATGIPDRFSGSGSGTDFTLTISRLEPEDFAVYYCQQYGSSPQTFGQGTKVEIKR
notes: also called IgG1 AR3B
As to B8, the EC50 in test [5] is 2 nM.

A word on the EC50: it is the concentration that produces a half-maximal response.

The values are drawn from patent US20100104555A1 (Scripps Research, published 2010).
